Results published in patent publication US20240228579A1 (Innovent, published 2024).
Positions count from the first letter of the chain named.

B1: Fcmut-13 (antibody, human IgG2, kappa)
heavy: QVQLVQSGAEVKKPGSSVKVSCKASGYSFSSYNIHWVRQAPGQGLEWMGYIAPFQGDSRYNQKFKGRVTITADKSTSTAYMELSSLRSEDTAVYYCARLNRGNSLDYWGQGTLVTVSSASTKGPSVFPLAPCSRSTSESTAALGCLVKDYFPEPVTVSWNSGALTSGVHTFPAVLQSSGLYSLSSVVTVPSSNFGTQTYTCNVDHKPSNTKVDKTVERKCCVECPPCPAPPAAGPSVFLFPPKPKDTLMISRTPEVTCVVVDVSHEDPEVQFNWYVDGVEVHNAKTKPREEQFNSTFRVVSVLTVVHQDWLNGKEYKCKVSNKGLPAPIEKTISKTKGQPREPQVYTLPPSREEMTKNQVSLTCLVKGFYPSDISVEWESNGQPENNYKTTPPMLDSDGSFFLYSKLTVDKSRWQQGNVFSCSVMHEALHNHYTQKSLSLSPGK
light: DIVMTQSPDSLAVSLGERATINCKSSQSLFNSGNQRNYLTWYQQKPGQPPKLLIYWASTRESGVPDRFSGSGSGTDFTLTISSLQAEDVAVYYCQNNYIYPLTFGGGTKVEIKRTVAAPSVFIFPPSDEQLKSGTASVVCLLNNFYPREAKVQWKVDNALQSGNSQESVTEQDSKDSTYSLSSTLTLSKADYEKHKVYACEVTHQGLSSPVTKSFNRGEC
notes: IgG2-mut: A at 234 (EU index)
B2: Fcmut-10 (antibody, human IgG2, kappa)
heavy: QVQLVQSGAEVKKPGSSVKVSCKASGYSFSSYNIHWVRQAPGQGLEWMGYIAPFQGDSRYNQKFKGRVTITADKSTSTAYMELSSLRSEDTAVYYCARLNRGNSLDYWGQGTLVTVSSASTKGPSVFPLAPCSRSTSESTAALGCLVKDYFPEPVTVSWNSGALTSGVHTFPAVLQSSGLYSLSSVVTVPSSNFGTQTYTCNVDHKPSNTKVDKTVERKCCVECPPCPAPPVAGPSVFLFPPKPKDTLMISRTPEVTCVVVDVSHEDPEVQFNWYVDGVEVHNAKTKPREEQFNSTFRVVSVLTVVHQDWLNGKEYKCKVSNKGLAPIEKTISKTKGQPREPQVYTLPPSREEMTKNQVSLTCLVKGFYPSDISVEWESNGQPENNYKTTPPMLDSDGSFFLYSKLTVDKSRWQQGNVFSCSVMHEALHNHYTQKSLSLSPGK
light: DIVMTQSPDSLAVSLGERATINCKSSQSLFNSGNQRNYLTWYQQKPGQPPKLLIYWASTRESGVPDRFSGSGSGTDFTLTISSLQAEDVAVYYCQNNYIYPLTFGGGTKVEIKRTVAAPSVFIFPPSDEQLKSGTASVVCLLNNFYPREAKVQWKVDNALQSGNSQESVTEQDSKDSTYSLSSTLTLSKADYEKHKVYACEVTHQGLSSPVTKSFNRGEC
notes: IgG2-mut: deletion of 329 (EU index); anti-claudin18.2 variable regions of Fcmut-01
B3: Fcmut-14 (antibody, human IgG2, kappa)
heavy: B2 heavy with V232A
light: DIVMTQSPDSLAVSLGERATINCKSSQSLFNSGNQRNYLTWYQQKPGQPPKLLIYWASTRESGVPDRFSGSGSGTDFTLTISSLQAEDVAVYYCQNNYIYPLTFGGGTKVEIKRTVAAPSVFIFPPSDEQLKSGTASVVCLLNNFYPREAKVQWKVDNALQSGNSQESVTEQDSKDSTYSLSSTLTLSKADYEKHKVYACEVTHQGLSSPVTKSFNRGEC
notes: IgG2-mut: A at 234, deletion of 329 (EU index)
B4: Fcmut-15 (antibody, human IgG2, kappa)
heavy: B2 heavy with V232A, A326G
light: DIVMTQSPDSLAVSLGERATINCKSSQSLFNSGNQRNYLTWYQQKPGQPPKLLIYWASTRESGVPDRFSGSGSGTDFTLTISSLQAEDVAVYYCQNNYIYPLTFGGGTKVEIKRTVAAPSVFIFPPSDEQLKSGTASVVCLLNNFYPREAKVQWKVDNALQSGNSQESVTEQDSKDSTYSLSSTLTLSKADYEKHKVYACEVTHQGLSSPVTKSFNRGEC
notes: IgG2-mut: A at 234, deletion of 329, G at 330 (EU index)
B5: Fcmut-11 (antibody, human IgG2, kappa)
heavy: B2 heavy with A326G
light: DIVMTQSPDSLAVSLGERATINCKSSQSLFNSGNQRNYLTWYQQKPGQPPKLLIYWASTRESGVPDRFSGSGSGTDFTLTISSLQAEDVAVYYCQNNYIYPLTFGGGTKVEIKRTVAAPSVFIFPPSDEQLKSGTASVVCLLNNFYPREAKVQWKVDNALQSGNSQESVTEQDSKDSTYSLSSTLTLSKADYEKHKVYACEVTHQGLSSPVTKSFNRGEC
notes: IgG2-mut: deletion of 329, G at 330 (EU index)
B6: Fcmut-20 (antibody, human IgG4 S228P, kappa)
heavy: QVQLVQSGAEVKKPGSSVKVSCKASGYSFSSYNIHWVRQAPGQGLEWMGYIAPFQGDSRYNQKFKGRVTITADKSTSTAYMELSSLRSEDTAVYYCARLNRGNSLDYWGQGTLVTVSSASTKGPSVFPLAPCSRSTSESTAALGCLVKDYFPEPVTVSWNSGALTSGVHTFPAVLQSSGLYSLSSVVTVPSSSLGTKTYTCNVDHKPSNTKVDKRVESKYGPPCPPCPAPEFLGGPSVFLFPPKPKDTLMISRTPEVTCVVVDVSQEDPEVQFNWYVDGVEVHNAKTKPREEQFNSTYRVVSVLTVLHQDWLNGKEYKCKVSNKGLSIEKTISKAKGQPREPQVYTLPPSQEEMTKNQVSLTCLVKGFYPSDIAVEWESNGQPENNYKTTPPVLDSDGSFFLYSRLTVDKSRWQEGNVFSCSVMHEALHNHYTQKSLSLSLGK
light: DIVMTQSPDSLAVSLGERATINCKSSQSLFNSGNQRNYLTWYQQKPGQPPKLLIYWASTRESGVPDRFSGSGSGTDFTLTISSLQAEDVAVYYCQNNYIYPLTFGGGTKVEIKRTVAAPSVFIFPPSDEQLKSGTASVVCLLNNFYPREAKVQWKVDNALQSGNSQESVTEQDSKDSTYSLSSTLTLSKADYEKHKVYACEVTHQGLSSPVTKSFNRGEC
notes: IgG4-mut: deletion of 329 and 330 (EU index)
B7: Fcmut-24 (antibody, human IgG4 S228P, kappa, F234A L235A)
heavy: B6 heavy with F232A, L233A
light: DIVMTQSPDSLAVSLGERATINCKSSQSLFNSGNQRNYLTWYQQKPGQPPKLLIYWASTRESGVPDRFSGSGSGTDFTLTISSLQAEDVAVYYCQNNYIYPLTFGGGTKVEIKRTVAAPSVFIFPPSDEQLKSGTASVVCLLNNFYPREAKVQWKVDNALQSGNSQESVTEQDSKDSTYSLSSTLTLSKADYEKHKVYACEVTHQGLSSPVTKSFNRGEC
notes: also called Fcmut-024
B8: Fcmut-18 (antibody, human IgG4 S228P, kappa)
heavy: QVQLVQSGAEVKKPGSSVKVSCKASGYSFSSYNIHWVRQAPGQGLEWMGYIAPFQGDSRYNQKFKGRVTITADKSTSTAYMELSSLRSEDTAVYYCARLNRGNSLDYWGQGTLVTVSSASTKGPSVFPLAPCSRSTSESTAALGCLVKDYFPEPVTVSWNSGALTSGVHTFPAVLQSSGLYSLSSVVTVPSSSLGTKTYTCNVDHKPSNTKVDKRVESKYGPPCPPCPAPEFLGGPSVFLFPPKPKDTLMISRTPEVTCVVVDVSQEDPEVQFNWYVDGVEVHNAKTKPREEQFNSTYRVVSVLTVLHQDWLNGKEYKCKVSNKGLSSIEKTISKAKGQPREPQVYTLPPSQEEMTKNQVSLTCLVKGFYPSDIAVEWESNGQPENNYKTTPPVLDSDGSFFLYSRLTVDKSRWQEGNVFSCSVMHEALHNHYTQKSLSLSLGK
light: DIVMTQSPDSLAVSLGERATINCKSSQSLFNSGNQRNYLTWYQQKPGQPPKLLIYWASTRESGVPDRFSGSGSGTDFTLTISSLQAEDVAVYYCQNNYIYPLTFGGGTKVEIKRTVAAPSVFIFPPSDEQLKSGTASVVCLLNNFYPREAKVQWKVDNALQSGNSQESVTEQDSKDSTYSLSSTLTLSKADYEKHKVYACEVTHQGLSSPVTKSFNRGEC
notes: IgG4-mut: deletion of 329 (EU index)
B9: Fcmut-23 (antibody, human IgG4 S228P, kappa, F234A L235A)
heavy: B8 heavy with F232A, L233A, S327G
light: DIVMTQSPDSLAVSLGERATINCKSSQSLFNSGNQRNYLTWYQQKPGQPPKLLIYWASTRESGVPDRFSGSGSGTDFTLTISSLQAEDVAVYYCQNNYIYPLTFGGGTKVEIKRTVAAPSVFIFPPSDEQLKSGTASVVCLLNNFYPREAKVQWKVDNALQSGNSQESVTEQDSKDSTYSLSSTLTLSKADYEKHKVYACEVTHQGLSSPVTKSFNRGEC
B10: Fcmut-19 (antibody, human IgG4 S228P, kappa)
heavy: B8 heavy with S327G
light: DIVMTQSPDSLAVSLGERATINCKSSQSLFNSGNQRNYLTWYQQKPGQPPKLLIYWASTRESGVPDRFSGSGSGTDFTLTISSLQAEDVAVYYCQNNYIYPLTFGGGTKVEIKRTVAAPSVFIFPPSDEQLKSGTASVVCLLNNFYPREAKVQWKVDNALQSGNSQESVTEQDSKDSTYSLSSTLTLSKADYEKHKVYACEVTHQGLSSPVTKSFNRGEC
notes: IgG4-mut: deletion of 329, G at 330 (EU index)
B11: Fcmut-22 (antibody, human IgG4 S228P, kappa, F234A L235A)
heavy: B8 heavy with F232A, L233A
light: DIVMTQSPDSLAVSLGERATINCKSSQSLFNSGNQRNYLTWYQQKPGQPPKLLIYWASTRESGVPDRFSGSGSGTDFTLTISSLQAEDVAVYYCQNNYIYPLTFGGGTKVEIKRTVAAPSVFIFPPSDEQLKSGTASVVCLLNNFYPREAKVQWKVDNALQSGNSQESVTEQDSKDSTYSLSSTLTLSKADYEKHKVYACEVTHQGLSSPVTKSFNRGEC
B12: Fcmut-12 (antibody, human IgG2, kappa)
heavy: QVQLVQSGAEVKKPGSSVKVSCKASGYSFSSYNIHWVRQAPGQGLEWMGYIAPFQGDSRYNQKFKGRVTITADKSTSTAYMELSSLRSEDTAVYYCARLNRGNSLDYWGQGTLVTVSSASTKGPSVFPLAPCSRSTSESTAALGCLVKDYFPEPVTVSWNSGALTSGVHTFPAVLQSSGLYSLSSVVTVPSSNFGTQTYTCNVDHKPSNTKVDKTVERKCCVECPPCPAPPVAGPSVFLFPPKPKDTLMISRTPEVTCVVVDVSHEDPEVQFNWYVDGVEVHNAKTKPREEQFNSTFRVVSVLTVVHQDWLNGKEYKCKVSNKGLPIEKTISKTKGQPREPQVYTLPPSREEMTKNQVSLTCLVKGFYPSDISVEWESNGQPENNYKTTPPMLDSDGSFFLYSKLTVDKSRWQQGNVFSCSVMHEALHNHYTQKSLSLSPGK
light: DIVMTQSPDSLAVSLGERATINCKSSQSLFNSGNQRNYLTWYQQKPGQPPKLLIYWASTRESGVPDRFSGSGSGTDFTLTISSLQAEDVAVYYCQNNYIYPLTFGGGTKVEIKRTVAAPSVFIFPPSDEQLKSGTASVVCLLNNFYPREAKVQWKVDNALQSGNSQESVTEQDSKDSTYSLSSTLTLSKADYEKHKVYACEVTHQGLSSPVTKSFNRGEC
notes: IgG2-mut: deletion of 329 and 330 (EU index)
B13: Fcmut-16 (antibody, human IgG2, kappa)
heavy: B12 heavy with V232A
light: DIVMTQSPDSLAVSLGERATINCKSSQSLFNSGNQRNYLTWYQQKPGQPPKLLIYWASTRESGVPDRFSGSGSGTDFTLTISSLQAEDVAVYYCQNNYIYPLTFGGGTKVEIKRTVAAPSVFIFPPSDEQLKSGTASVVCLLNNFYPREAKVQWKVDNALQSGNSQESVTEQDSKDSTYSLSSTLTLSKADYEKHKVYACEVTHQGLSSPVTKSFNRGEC
notes: IgG2-mut: A at 234, deletion of 329 and 330 (EU index)

Target: T1, human C1q (human, UniProt P02745 23-245; P02746 28-253; P02747 29-245)
T1 construct: Bought C1q (Complement Technology); also called C1q antigen
T1 sequence (P02745 23-245 limits assumed, chain 1 of 3): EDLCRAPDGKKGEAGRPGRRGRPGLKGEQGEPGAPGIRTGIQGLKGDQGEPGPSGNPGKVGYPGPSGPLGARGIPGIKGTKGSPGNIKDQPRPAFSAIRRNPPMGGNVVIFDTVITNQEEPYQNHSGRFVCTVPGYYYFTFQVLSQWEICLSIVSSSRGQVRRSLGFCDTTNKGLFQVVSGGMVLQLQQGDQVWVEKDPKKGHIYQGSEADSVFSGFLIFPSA
T1 sequence (P02746 28-253 limits assumed, chain 2 of 3): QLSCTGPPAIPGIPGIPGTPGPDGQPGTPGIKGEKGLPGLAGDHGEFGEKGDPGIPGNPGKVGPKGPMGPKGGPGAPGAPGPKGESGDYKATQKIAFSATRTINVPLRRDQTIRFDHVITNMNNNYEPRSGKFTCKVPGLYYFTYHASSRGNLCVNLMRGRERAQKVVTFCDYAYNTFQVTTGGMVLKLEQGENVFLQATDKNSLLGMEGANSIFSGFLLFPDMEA
T1 sequence (P02747 29-245 limits assumed, chain 3 of 3): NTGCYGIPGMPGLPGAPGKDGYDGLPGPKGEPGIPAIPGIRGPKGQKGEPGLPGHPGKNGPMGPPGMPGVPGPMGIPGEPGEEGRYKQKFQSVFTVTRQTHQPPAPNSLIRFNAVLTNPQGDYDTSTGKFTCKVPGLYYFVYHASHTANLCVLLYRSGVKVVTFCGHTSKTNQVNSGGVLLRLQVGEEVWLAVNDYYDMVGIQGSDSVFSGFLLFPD
Experiment: BLI (Octet), biotinylated antibody on SA sensor
Procedure: The antibody was diluted to approximately 100 nM, and C1q (Δ099, Complement Technology) was diluted to 40 nM.
Detection was conducted using Fortebio Octet Red96e, and the sensors were arranged according to the positions of the samples. […] After the experiment was completed, KD values were analyzed using ForteBio Octet analysis software, the coordinate axis data were derived, and Graphpad Prism 8 software was used for plotting.

Binding result, no binding (tested: C1q 40 nM):
B1
B2
B3
B4
B5
B6
B7
B8
B9
B10
B11
B12
B13
